Data as given in article PMC6363164, “Structural basis of human ORP1-Rab7 interaction for the late-endosome and lysosome targeting” (PLoS ONE, 2019).

How the values were obtained:
Details in all cases: both partners purified
[1] = target: T1, human Rab7 (residue 2-195) Q67L, GTP-loaded (human, UniProt P51149 2-195, Q67L); test: ITC; 20 °C; 20 mM Tris-HCl pH 7.5, 150 mM NaCl; 1 mM ORP1 ANK in the syringe, 0.1 mM Rab7 or Rab7-RILP in the cell; Rab7 Q67L with 0.5 mM GTP, Rab7 T22N with 0.5 mM GDP; independent binding model
T1 construct: Ras-related protein Rab-7a, human, UniProt P51149, residues 2-195, dominant active mutant Q67L; Loaded with 0.5 mM GTP for ITC; also called Rab7 Q67L; dominant active Rab7; source: E. coli BL21(DE3), purified (Ni-NTA, SEC)

[2] = target: T2, human Rab7 (residue 2-195) T22N, GDP-loaded (human, UniProt P51149 2-195, T22N); test: as above
T2 construct: Ras-related protein Rab-7a, human, UniProt P51149, residues 2-195, dominant negative mutant T22N; Loaded with 0.5 mM GDP for ITC; also called Rab7 T22N; dominant negative Rab7; source: E. coli BL21(DE3), purified (Ni-NTA, SEC)

[3] = target: T3, human Rab7 (residue 2-195) Q67L Δ73, GTP-bound (human, UniProt P51149 2-195, Q67L | Δ73); test: crystal structure; ORP1 ANK (5-152) with GTP- and Mg2+-bound Rab7 (2-195) Q67L Δ73; 2.1 Å; two heterodimers in the asymmetric unit
T3 construct: Ras-related protein Rab-7a, human, UniProt P51149, residues 2-195, Q67L and deletion of Leu73 in switch II; 0.5 mM MgCl2 and GTP were added before crystallisation; also called Rab7 Q67L Δ73; Rab7 (Q67L, Δ73); source: E. coli BL21(DE3), purified (Ni-NTA, SEC)
T3 sequence (P51149 other isoform, or with tags, fused parts or gaps Q67L | Δ73 | Q67L | Δ73 | Q67L Q67L): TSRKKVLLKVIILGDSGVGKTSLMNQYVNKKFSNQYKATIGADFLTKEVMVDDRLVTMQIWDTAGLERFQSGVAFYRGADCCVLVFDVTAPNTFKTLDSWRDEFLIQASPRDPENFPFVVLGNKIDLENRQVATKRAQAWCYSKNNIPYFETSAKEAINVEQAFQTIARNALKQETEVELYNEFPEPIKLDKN

T1 sequence (P51149 2-195 Q67L): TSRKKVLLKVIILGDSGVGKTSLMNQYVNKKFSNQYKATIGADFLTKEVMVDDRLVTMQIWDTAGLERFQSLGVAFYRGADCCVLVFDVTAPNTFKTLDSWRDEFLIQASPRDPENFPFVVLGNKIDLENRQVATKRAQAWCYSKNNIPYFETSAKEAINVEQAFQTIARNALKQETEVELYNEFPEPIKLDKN
T2 sequence (P51149 2-195 T22N): as the sequence (P51149 2-195 Q67L) above, with T21N, L66Q counted along it

B1: human ORP1 ANK domain (residue 5-152) (domain or fragment, UniProt Q9BXW6-1 5-152, looked up)
chain: AEQQLLHHARNGNAEEVRQLLETMARNEVIADINCKGRSKSNLGWTPLHLACYFGHRQVVQDLLKAGAEVNVLNDMGDTPLHRAAFTGRKELVMLLLEYNADTTIVNGSGQTAKEVTHAEEIRSMLEAVERTQQRKLEELLLAAAREG
notes: The His tag was cut off with thrombin (site LVPR/GS); A longer ANK construct (5-233) was also cloned; also called small ORP1 ANK construct; source: E. coli BL21(DE3), purified (Ni-NTA, SEC); not shown: His6, N-terminal, cleaved
In the case of B1, the Kd [1] is reported as 9.3 µM, the “stoichiometry N” value [1] is reported as 1 and the binding result [2] is reported as “binds”. B1: binds [3].
